According to paper PMC5078793, “ADAMTS-10 and -6 differentially regulate cell-cell junctions and focal adhesions” (Scientific Reports, 2016):

What was measured:
[1] = target: T1, ADAMTS6 C-terminal region (human, UniProt Q9UKP5-1 558-1117); test: SPR; Biacore; ADAMTS protein (full-length or C-terminal region) immobilised by amine coupling on CM5 (~3000 RU); analyte injected at 30 ul/min; 10 mM HEPES pH 7.4, 0.1 M NaCl, 0.5 mM CaCl2, 0.005% P20; 1:1 kinetics or equilibrium analysis; details: both partners purified
T1 construct: human ADAMTS6 variant 1, C-terminal region starting at the 1st TSR domain, residues 558-1117; The text calls it monomeric; also called C-terminal ADAMTS6; C-terminal fragment of ADAMTS6; source: 293-EBNA cells (pCEP-pu/AC7), purified (IMAC, 0.5 M NaCl)
T1 sequence (looked up): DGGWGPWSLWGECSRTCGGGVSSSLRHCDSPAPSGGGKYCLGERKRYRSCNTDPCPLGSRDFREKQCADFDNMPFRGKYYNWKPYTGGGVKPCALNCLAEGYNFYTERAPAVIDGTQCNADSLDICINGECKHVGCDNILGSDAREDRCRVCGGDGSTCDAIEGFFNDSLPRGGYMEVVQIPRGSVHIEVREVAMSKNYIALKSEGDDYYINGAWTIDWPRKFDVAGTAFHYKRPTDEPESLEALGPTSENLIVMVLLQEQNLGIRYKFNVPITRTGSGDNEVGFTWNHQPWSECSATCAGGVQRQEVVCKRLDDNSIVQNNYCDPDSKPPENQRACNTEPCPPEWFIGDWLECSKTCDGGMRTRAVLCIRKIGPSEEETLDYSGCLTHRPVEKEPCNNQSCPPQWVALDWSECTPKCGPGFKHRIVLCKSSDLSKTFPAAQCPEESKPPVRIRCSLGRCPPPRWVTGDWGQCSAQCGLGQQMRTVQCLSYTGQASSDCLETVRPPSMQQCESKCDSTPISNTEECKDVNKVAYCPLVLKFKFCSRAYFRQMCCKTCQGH

[2] = target: the molecule itself; test: SDS-PAGE and western blot (SDS-resistant dimer); purified syndecan-4 ectodomain treated with heparinases I, II, III; anti-syndecan-4 blot; with or without ADAMTS6 overnight at 37 °C
[3] = target: T1, ADAMTS6 C-terminal region; test: SPR; Biacore; syndecan-4 ectodomain immobilised, ADAMTS C-terminal regions injected; 10 mM HEPES pH 7.4, 0.1 M NaCl, 0.5 mM CaCl2, 0.005% P20; details: both partners purified
[4] = target: T2, ADAMTS10 C-terminal region (human, UniProt Q9H324 547-1103); test: as above; details: both partners purified
T2 construct: human ADAMTS10 variant 1, C-terminal region starting at the 1st TSR domain, residues 547-1103; also called C-terminal ADAMTS10; source: 293-EBNA cells (pCEP-pu/AC7), purified (IMAC, 0.5 M NaCl)
T2 sequence (looked up): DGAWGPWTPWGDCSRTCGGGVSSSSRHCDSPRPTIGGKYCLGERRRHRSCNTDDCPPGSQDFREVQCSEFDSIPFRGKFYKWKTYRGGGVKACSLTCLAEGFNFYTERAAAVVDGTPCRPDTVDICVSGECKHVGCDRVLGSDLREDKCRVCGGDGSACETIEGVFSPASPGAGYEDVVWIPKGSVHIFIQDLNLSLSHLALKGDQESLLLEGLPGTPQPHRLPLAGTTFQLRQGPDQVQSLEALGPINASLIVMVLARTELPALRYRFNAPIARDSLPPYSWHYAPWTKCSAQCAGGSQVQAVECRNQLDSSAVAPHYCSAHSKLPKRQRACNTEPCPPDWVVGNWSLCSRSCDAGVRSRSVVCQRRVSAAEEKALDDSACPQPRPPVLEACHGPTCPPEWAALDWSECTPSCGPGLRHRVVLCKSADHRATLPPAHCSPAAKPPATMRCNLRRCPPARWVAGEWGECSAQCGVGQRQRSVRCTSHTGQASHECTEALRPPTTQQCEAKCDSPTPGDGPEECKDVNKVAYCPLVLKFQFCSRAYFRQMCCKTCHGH

B1: fibrillin-1 Ex6–11 fragment (domain or fragment)
chain: not shown
notes: human fibrillin-1, domains encoded by exons 6-11; source: 293-EBNA cells (pCEP-pu/AC7), purified (IMAC, size-exclusion chromatography)
For B1, which Kd [1] is on record?
Its Kd is 2.4 ± 1.2 nM.

B2: syndecan-4 ectodomain (domain or fragment, human (cloned from ARPE-19A RNA), UniProt P31431 19-143, looked up)
chain: ESIRETEVIDPQDLLEGRYFSGALPDDEDVVGPGQESDDFELSGSGDLDDLEDSMIGPEVVHPLVPLDNHIPERAGSGSQVPTEPKKLEENEVIPKRISPVEESEDVSNKVSMSSTVQGSNIFER
modifications: the recombinant protein is modified with heparin chains
notes: syndecan-4 ectodomain cloned from RNA of ARPE-19A cells, residues 19-143 (ESI....IFE); Carries heparan sulphate chains in the SPR; also called Syn4 EC; syndecan-4 extracellular domain; source: 293-EBNA cells (pCEP-pu/AC7), purified (IMAC, size-exclusion chromatography)
What does the source list for B2?
binding result [2]: binds; Kd [3]: 12.9 ± 4 nM; Kd [4]: 14 ± 1.1 nM
